Laboratory results from patent publication US20190233519A1 (NANJING LEGEND BIOTECH, published 2019).

What was measured:
[1] = biological target: T1, human PD-1 expressed on CHO cells (human, UniProt Q15116 25-288); assay: FACS on CHO cells expressing human PD-1
T1 construct: whole, on cells; Also used here for PD-1 on primary T cells (MLR) and on reporter Jurkat cells in the functional rows; also called CHO cells expressing human PD-1
Protocol: (§1) CHO cells expressing human PD-1 were dissociated from adherent culture flasks and mixed with varying concentrations of antibodies (both in a 96-well plate). […] Human IgG was used as a negative binding control. The mixture was equilibrated for 30 minutes at room temperature, washed three times with FACS buffer (PBS containing 1% BSA). FITC-conjugated anti-human kappa antibody (Jackson ImmunoResearch) used as secondary antibody was then added and incubated for 15 minutes at room temperature. Cells were washed again with FACS buffer and analyzed by flow cytometry. Data were analyzed with Prism (GraphPad Software, San Diego, Calif.) using non-linear regression, and EC₅₀ values were calculated.
BABP samples were prepared (starting at 1 μM, 3-fold serial dilution with 10 concentrations) as primary antibodies for FACS analysis.

[2] = biological target: T2, human CTLA-4 expressed on CHO cells (human, UniProt P16410 37-223); assay: FACS on CHO cells expressing human CTLA-4
T2 construct: also called CHO cells expressing human CTLA-4; CTLA-4 expressing CHO cells
Protocol: (§2) Binding of HCAbs to human CTLA-4 expressed on CHO cells was determined using a fluorescence-activated cell sorting (FACS)-based assay. CHO cells expressing human CTLA-4 were dissociated from adherent culture flasks and mixed with varying concentrations of antibodies (in a 96-well plate). […] The mixture was equilibrated for 30 minutes at room temperature, then washed three times with FACS buffer (PBS containing 1% BSA). Fluorescein isothiocyanate (FITC)-conjugated anti-human κ antibody (Jackson ImmunoResearch) was then added and incubated for 15 minutes at room temperature, serving as a secondary antibody. Cells were washed again with FACS buffer and analyzed by flow cytometry. Data were analyzed with Prism (GraphPad Software, San Diego, Calif.) using non-linear regression, and EC₅₀ values were calculated.
BABP samples were prepared (starting at 1 μM, 3-fold serial dilution with 10 concentrations) as primary antibody for FACS analysis.

PD-1-His protein = biological target: T3, PD-1-His protein (UniProt Q15116 25-167, limits assumed); assay: SPR, antibody captured by Fc, PD-1-His as analyte
T3 construct: not shown: His tag

CTLA-4-His protein [3] = biological target: T4, CTLA-4-His protein (Homo sapiens (Human), UniProt P16410 37-161); assay: SPR, antibody captured by Fc, CTLA-4-His as analyte
T4 construct: also called CTLA-4-His fusion protein; not shown: His tag

[4] = biological target: T1, human PD-1 expressed on CHO cells; assay: FACS competition, biotin hPD-L1-Fc on CHO cells expressing human PD-1
Protocol: The mixture was equilibrated for 30 minutes at room temperature, and washed three times with FACS buffer (PBS containing 1% BSA). PE/Cy5 Streptavidin secondary antibody was then added to the mixtures and incubated for 15 minutes at room temperature. Subsequently, the cells were washed with FACS buffer and analyzed by flow cytometry.

[5] = biological target: T5, biotin-labeled hCTLA-4/Fc protein (human, UniProt P16410 37-161, biotin label in the FACS competition assays (sites not given)); assay: FACS competition, biotin hCTLA-4-Fc on CHO cells expressing human B7-1
T5 construct: also called CTLA-4 ECD (CTLA-4-Fc); CTLA-4-Fc (GenScript, Z03373-50)

[6] = biological target: T1, human PD-1 expressed on CHO cells; assay: FACS on CHO cells expressing human PD-1; remark: listed apart in the source
Protocol: as §1

[7] = biological target: T2, human CTLA-4 expressed on CHO cells; assay: FACS on CHO cells expressing human CTLA-4; remark: listed apart in the source
Protocol: as §2

CTLA-4-His protein [8] = biological target: T4, CTLA-4-His protein; assay: SPR, antibody immobilised, CTLA-4-His as analyte
CTLA-4-His protein [9] = biological target: T4, CTLA-4-His protein; assay: SPR, antibody immobilised on CM5, CTLA-4-His as analyte
CTLA-4-His protein [10] = biological target: T4, CTLA-4-His protein; assay: SPR, CTLA-4-His immobilised, HCAb as analyte at 5-160 nM
Protocol: Binding kinetics of anti-CTLA-4 HCAbs were determined using a Surface Plasmon Resonance (SPR) biosensor, Biacore T200 (GE Healthcare). Antigen CTLA-4-His fusion protein was immobilized on the sensor chip. […] The data of dissociation (kd) and association (kₐ) rate constants were obtained using Biacore T200 evaluation software. The apparent equilibrium dissociation constants (KD) were calculated from the ratio of kd/kₐ.

[11] = biological target: T5, biotin-labeled hCTLA-4/Fc protein; assay: FACS competition, biotin hCTLA-4/Fc on CHO cells expressing human B7-1
Protocol: Blockade of ligand binding was studied using flow cytometry. […] The mixture was equilibrated for 30 minutes at room temperature, washed three times with FACS buffer (PBS containing 1% BSA). PE/Cy5 Streptavidin secondary antibody was then added and incubated for 15 minutes at room temperature. Cells were washed again with FACS buffer and analyzed by flow cytometry. Data were analyzed with Prism (GraphPad Software, San Diego, Calif.) using non-linear regression, and IC₅₀ values were calculated.

T1 sequence (Q15116 25-288): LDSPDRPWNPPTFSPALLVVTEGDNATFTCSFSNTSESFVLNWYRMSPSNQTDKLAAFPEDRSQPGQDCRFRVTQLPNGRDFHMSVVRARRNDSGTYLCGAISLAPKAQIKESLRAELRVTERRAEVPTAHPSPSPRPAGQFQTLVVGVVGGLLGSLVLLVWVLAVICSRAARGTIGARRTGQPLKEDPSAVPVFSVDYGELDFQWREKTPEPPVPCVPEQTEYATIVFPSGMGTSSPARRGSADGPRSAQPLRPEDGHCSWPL
T2 sequence (P16410 37-223): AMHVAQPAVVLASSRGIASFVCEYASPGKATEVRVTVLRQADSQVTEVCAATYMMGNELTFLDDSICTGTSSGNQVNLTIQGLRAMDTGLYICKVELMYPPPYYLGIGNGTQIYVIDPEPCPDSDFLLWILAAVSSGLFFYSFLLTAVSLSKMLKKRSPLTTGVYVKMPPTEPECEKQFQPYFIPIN
T3 sequence (Q15116 25-167 limits assumed): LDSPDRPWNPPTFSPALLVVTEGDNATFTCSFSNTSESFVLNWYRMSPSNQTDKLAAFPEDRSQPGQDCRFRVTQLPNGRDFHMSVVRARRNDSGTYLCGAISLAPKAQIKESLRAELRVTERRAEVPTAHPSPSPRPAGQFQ
T4 sequence (P16410 37-161 limits assumed): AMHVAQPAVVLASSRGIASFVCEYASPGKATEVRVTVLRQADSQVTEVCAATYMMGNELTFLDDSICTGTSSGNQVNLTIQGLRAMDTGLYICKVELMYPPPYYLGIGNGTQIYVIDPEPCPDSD
T5 sequence (P16410 37-161): as the sequence (P16410 37-161 limits assumed) above

B1: BCP-2 (BCP-K311) (Keytruda-9GS-A34311) (bispecific antibody, human IgG4 S228P, kappa)
heavy: not shown
light: EIVLTQSPATLSLSPGERATLSCRASKGVSTSGYSYLHWYQQKPGQAPRLLIYLASYLESGVPARFSGSGSGTDFTLTISSLEPEDFAVYYCQHSRDLPLTFGGGTKVEIKRTVAAPSVFIFPPSDEQLKSGTASVVCLLNNFYPREAKVQWKVDNALQSGNSQESVTEQDSKDSTYSLSSTLTLSKADYEKHKVYACEVTHQGLSSPVTKSFNRGEC
EC50 [1]: 5.2 nM
EC50 [2]: 16.4 nM
Kd (PD-1-His protein): 5.3 nM
Kd (CTLA-4-His protein [3]): 11 nM
IC50 [4]: 2.3 nM
IC50 [5]: 11.7 nM

B2: BCP-75 (AS07189TKDVH11-mutated hIgG1 hinge-Keytruda) (bispecific antibody)
heavy: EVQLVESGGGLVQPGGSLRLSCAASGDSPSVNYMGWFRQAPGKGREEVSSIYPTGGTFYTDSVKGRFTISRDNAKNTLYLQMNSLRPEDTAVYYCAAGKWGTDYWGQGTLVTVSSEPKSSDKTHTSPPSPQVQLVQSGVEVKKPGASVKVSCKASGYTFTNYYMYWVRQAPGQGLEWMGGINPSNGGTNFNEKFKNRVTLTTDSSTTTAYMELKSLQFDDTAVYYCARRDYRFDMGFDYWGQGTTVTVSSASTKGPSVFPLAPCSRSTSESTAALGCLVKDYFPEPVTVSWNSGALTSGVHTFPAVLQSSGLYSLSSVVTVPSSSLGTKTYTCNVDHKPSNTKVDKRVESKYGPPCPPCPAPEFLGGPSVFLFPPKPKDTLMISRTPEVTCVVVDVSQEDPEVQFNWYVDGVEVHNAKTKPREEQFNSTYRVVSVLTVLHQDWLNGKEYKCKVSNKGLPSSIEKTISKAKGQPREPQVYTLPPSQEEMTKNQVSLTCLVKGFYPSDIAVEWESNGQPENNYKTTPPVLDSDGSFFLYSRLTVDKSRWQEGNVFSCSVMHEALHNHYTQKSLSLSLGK
light: B1 light
binding result [6]: binds
binding result [7]: binds
binding result (CTLA-4-His protein [8]): binds

B3: BCP-311K (A34311-9GS-Keytruda) (bispecific antibody, human IgG4 S228P, kappa)
heavy: not shown
light: B1 light
binding result (CTLA-4-His protein [9]): binds

B4: BCP-32 (A34311-9GS linker-A34311-9GS linker-Keytruda) (bispecific antibody, human IgG4 S228P, kappa)
heavy: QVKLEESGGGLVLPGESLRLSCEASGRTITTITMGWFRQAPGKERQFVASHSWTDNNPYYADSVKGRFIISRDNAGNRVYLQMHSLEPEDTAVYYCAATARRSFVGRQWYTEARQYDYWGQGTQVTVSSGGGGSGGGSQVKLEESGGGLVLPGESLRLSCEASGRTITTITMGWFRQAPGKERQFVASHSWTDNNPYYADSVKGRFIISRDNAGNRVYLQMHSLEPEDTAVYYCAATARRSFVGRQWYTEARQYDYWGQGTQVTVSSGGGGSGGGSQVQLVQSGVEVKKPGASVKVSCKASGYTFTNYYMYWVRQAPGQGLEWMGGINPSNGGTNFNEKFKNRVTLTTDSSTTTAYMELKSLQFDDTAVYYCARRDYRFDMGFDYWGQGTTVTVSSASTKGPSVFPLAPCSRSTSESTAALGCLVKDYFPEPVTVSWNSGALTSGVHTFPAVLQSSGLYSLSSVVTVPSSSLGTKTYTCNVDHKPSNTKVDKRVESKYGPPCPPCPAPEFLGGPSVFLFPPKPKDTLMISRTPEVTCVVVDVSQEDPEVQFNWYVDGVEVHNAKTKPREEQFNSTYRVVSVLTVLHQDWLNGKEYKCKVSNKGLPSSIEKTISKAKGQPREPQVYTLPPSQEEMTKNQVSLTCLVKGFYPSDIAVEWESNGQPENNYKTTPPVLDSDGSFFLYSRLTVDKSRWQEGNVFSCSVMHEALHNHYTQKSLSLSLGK
light: B1 light
EC50 [1]: 8.1 nM
EC50 [2]: 71.7 nM
Kd (PD-1-His protein): 7.5 nM
Kd (CTLA-4-His protein [3]): 4.1 nM
IC50 [4]: 4.3 nM
IC50 [5]: 14.6 nM

B5: BCP-73 (A34311VH11-mutated hIgG1 hinge-Keytruda) (bispecific antibody)
heavy: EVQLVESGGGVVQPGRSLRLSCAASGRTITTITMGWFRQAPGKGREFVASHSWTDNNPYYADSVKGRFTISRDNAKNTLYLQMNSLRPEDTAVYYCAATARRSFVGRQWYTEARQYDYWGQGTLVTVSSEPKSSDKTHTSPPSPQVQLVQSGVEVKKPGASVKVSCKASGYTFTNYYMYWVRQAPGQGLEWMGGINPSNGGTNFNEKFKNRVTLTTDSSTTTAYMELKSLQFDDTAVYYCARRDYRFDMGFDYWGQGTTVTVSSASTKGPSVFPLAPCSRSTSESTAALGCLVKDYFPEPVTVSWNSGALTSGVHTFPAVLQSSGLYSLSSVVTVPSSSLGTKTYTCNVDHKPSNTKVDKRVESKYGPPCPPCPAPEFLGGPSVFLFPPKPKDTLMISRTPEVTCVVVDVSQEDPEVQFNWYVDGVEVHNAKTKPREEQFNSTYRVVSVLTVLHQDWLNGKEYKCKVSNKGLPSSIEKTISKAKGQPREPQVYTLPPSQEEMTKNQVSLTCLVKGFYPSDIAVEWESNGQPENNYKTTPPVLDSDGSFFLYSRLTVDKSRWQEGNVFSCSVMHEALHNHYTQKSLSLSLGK
light: B1 light
binding result [6]: binds
binding result [7]: binds
binding result (CTLA-4-His protein [8]): binds

B6: BCP-33 (Keytruda-Fab VH-CH1-hIgG1 hinge-A34311-IgG1 Fc) (bispecific antibody)
heavy: not shown
light: B1 light
EC50 [1]: 1.5 nM
EC50 [2]: 48 nM
Kd (PD-1-His protein): 8.1 nM
Kd (CTLA-4-His protein [3]): 9.2 nM
IC50 [4]: 2 nM
IC50 [5]: 26.3 nM

B7: BCP-74 (AS07014VH11-mutated hIgG1 hinge-Keytruda) (bispecific antibody)
heavy: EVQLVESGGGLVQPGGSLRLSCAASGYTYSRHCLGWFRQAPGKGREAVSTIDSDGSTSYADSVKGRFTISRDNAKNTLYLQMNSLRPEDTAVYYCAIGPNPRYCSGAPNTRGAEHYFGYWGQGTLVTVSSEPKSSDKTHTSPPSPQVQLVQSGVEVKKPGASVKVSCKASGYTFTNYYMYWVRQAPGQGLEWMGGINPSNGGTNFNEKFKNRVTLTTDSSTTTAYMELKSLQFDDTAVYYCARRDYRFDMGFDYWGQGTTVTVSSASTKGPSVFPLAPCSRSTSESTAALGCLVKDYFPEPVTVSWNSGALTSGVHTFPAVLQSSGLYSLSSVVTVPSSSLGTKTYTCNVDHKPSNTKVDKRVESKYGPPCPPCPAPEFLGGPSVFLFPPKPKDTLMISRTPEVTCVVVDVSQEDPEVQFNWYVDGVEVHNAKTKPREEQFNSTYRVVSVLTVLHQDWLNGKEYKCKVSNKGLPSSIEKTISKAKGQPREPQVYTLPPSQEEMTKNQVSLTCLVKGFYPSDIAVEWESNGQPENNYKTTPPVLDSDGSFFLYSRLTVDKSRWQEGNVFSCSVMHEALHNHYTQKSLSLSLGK
light: B1 light
binding result [6]: binds
binding result [7]: binds
binding result (CTLA-4-His protein [8]): binds

B8: BCP-35 (Keytruda-Fab VH-CH1-hIgG1 hinge-A34311-CH1-IgG4 Fc, Keytruda-Fab VL-CL-hIgG1 hinge-A34311-CL) (bispecific antibody)
heavy: not shown
light: EIVLTQSPATLSLSPGERATLSCRASKGVSTSGYSYLHWYQQKPGQAPRLLIYLASYLESGVPARFSGSGSGTDFTLTISSLEPEDFAVYYCQHSRDLPLTFGGGTKVEIKRTVAAPSVFIFPPSDEQLKSGTASVVCLLNNFYPREAKVQWKVDNALQSGNSQESVTEQDSKDSTYSLSSTLTLSKADYEKHKVYACEVTHQGLSSPVTKSFNRGECEPKSCDKTHTCPPCPQVKLEESGGGLVLPGESLRLSCEASGRTITTITMGWFRQAPGKERQFVASHSWTDNNPYYADSVKGRFIISRDNAGNRVYLQMHSLEPEDTAVYYCAATARRSFVGRQWYTEARQYDYWGQGTQVTVSSRTVAAPSVFIFPPSDEQLKSGTASVVCLLNNFYPREAKVQWKVDNALQSGNSQESVTEQDSKDSTYSLSSTLTLSKADYEKHKVYACEVTHQGLSSPVTKSFNRGEC
EC50 [1]: 3 nM
EC50 [2]: 20.4 nM
Kd (PD-1-His protein): 7.3 nM
Kd (CTLA-4-His protein [3]): 7.2 nM
IC50 [4]: 4.6 nM
IC50 [5]: 17.5 nM

B9: AS07014 HCAb (Fc fusion)
heavy: QVHLVESGGGSVQAGGSLRLSCAASGYTYSRHCLGWFRQTPGKEREAVATIDSDGSTSYADSVKGRFTISSDNAKNTLYLQMNSLKPEDTAMYYCAIGPNPRYCSGAPNTRGAEHYFGYWAQGTQVTVSS
notes: not shown: human IgG1 Fc
binding result (CTLA-4-His protein [10]): binds

B10: AS07189 HCAb (Fc fusion)
heavy: QVQLVESGGGSVQAGGSLRLSCAASGDSPSVNYMGWFRRAPEKQREQREEVASIYPTGGTFYTDSVKGRFTISRDNAKNTLYLQMTALKPEDTAMYYCAAGKWGTDYWGQGTQVIVSS
notes: not shown: human IgG1 Fc
binding result (CTLA-4-His protein [10]): binds

B11: BCP-36 (Keytruda-scFv-hIgG1 hinge-A34311-CH1-IgG1 Fc, A34311-CL as light chain fusion polypeptide) (bispecific antibody)
heavy: not shown
light: QVKLEESGGGLVLPGESLRLSCEASGRTITTITMGWFRQAPGKERQFVASHSWTDNNPYYADSVKGRFIISRDNAGNRVYLQMHSLEPEDTAVYYCAATARRSFVGRQWYTEARQYDYWGQGTQVTVSSRTVAAPSVFIFPPSDEQLKSGTASVVCLLNNFYPREAKVQWKVDNALQSGNSQESVTEQDSKDSTYSLSSTLTLSKADYEKHKVYACEVTHQGLSSPVTKSFNRGEC
EC50 [1]: 1.8 nM
EC50 [2]: 26.4 nM
Kd (PD-1-His protein): 8.3 nM
Kd (CTLA-4-His protein [3]): 6.1 nM
IC50 [4]: 2 nM
IC50 [5]: 17.9 nM

B12: BCP-17 (Keytruda-hIgG1 hinge-A34311) (bispecific antibody)
heavy: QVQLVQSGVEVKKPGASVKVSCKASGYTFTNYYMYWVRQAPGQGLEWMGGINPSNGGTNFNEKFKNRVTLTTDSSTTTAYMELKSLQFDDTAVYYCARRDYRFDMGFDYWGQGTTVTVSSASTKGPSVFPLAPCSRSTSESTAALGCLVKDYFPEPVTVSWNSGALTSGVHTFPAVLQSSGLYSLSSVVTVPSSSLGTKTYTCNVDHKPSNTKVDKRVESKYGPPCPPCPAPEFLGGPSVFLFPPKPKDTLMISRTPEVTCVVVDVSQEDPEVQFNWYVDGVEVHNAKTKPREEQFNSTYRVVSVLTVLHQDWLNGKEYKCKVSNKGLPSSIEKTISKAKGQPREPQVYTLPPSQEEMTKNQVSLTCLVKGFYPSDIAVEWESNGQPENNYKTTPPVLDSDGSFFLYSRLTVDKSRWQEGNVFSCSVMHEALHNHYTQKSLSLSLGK
light: EIVLTQSPATLSLSPGERATLSCRASKGVSTSGYSYLHWYQQKPGQAPRLLIYLASYLESGVPARFSGSGSGTDFTLTISSLEPEDFAVYYCQHSRDLPLTFGGGTKVEIKRTVAAPSVFIFPPSDEQLKSGTASVVCLLNNFYPREAKVQWKVDNALQSGNSQESVTEQDSKDSTYSLSSTLTLSKADYEKHKVYACEVTHQGLSSPVTKSFNRGECEPKSCDKTHTCPPCPQVKLEESGGGLVLPGESLRLSCEASGRTITTITMGWFRQAPGKERQFVASHSWTDNNPYYADSVKGRFIISRDNAGNRVYLQMHSLEPEDTAVYYCAATARRSFVGRQWYTEARQYDYWGQGTQVTVSS
EC50 [1]: 2.7 nM
EC50 [2]: 17.7 nM
Kd (PD-1-His protein): 3.9 nM
Kd (CTLA-4-His protein [3]): 39.3 nM
IC50 [4]: 4 nM
IC50 [5]: 33.3 nM

B13: BCP-31 (A34311-9GS linker-Keytruda) (bispecific antibody, human IgG4 S228P, kappa)
heavy: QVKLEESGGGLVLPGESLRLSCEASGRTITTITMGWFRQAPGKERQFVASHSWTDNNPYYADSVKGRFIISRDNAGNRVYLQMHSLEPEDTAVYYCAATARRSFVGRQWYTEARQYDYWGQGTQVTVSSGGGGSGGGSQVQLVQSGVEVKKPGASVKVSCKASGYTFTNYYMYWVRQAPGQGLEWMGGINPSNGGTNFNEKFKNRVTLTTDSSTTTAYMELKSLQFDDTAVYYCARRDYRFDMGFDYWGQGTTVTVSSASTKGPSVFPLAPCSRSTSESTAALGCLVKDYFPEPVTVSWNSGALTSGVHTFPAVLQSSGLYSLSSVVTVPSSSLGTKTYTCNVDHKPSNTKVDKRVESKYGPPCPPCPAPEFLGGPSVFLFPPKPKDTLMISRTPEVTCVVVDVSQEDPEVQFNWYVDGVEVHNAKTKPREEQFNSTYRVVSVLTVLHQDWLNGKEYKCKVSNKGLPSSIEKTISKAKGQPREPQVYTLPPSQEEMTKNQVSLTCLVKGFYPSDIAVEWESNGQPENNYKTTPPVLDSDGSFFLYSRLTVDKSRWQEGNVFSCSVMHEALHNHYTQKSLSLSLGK
light: QVKLEESGGGLVLPGESLRLSCEASGRTITTITMGWFRQAPGKERQFVASHSWTDNNPYYADSVKGRFIISRDNAGNRVYLQMHSLEPEDTAVYYCAATARRSFVGRQWYTEARQYDYWGQGTQVTVSSGGGGSGGGSEIVLTQSPATLSLSPGERATLSCRASKGVSTSGYSYLHWYQQKPGQAPRLLIYLASYLESGVPARFSGSGSGTDFTLTISSLEPEDFAVYYCQHSRDLPLTFGGGTKVEIKRTVAAPSVFIFPPSDEQLKSGTASVVCLLNNFYPREAKVQWKVDNALQSGNSQESVTEQDSKDSTYSLSSTLTLSKADYEKHKVYACEVTHQGLSSPVTKSFNRGEC
EC50 [1]: 3.4 nM
EC50 [2]: 31.2 nM
Kd (PD-1-His protein): 8 nM
Kd (CTLA-4-His protein [3]): 4.3 nM
IC50 [4]: 5.7 nM
IC50 [5]: 15.3 nM

B14: BCP-16 (A34311-hIgG1 hinge-Keytruda) (bispecific antibody)
heavy: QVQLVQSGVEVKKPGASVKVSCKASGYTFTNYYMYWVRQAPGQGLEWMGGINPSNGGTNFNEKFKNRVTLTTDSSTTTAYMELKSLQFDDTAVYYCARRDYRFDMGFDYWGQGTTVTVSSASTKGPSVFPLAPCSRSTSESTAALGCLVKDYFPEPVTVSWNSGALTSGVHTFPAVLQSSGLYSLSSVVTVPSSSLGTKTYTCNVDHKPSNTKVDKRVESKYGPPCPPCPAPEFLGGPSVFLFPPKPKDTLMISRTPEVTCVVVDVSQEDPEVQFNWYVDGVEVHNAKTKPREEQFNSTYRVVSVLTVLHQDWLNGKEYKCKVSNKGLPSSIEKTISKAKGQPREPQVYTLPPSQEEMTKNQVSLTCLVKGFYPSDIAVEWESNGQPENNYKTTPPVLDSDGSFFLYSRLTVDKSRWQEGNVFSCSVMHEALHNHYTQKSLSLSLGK
light: QVKLEESGGGLVLPGESLRLSCEASGRTITTITMGWFRQAPGKERQFVASHSWTDNNPYYADSVKGRFIISRDNAGNRVYLQMHSLEPEDTAVYYCAATARRSFVGRQWYTEARQYDYWGQGTQVTVSSEPKSCDKTHTCPPCPEIVLTQSPATLSLSPGERATLSCRASKGVSTSGYSYLHWYQQKPGQAPRLLIYLASYLESGVPARFSGSGSGTDFTLTISSLEPEDFAVYYCQHSRDLPLTFGGGTKVEIKRTVAAPSVFIFPPSDEQLKSGTASVVCLLNNFYPREAKVQWKVDNALQSGNSQESVTEQDSKDSTYSLSSTLTLSKADYEKHKVYACEVTHQGLSSPVTKSFNRGEC
EC50 [1]: 12.2 nM
EC50 [2]: 26.6 nM
Kd (PD-1-His protein): 3.9 nM
Kd (CTLA-4-His protein [3]): 4.8 nM
IC50 [4]: 8.8 nM
IC50 [5]: 8.6 nM

B15: A34311 sdAb (VHH)
VHH: QVKLEESGGGLVLPGESLRLSCEASGRTITTITMGWFRQAPGKERQFVASHSWTDNNPYYADSVKGRFIISRDNAGNRVYLQMHSLEPEDTAVYYCAATARRSFVGRQWYTEARQYDYWGQGTQVTVSS
notes: also called A34311 (WT)
EC50 [11]: ~14.5 nM
